Assay results taken from patent publication US20200339678A1 (RIGEL PHARMACEUTICALS, published 2020).
Where a chain is given by its changes, count along the chain named. Like-named read-outs stand apart in the source and are kept apart here.

Assays:
[1] = target: T1, mouse TIGIT-Fc (mouse, UniProt P86176 29-148); test: competitive ELISA, mTIGIT-Fc to coated PVR
T1 construct: extracellular domain; also called mouse TIGIT extra cellular domain
T1 sequence (looked up): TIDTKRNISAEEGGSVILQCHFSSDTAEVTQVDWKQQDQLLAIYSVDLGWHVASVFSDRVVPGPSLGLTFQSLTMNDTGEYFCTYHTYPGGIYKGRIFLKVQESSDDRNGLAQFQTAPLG
Method: (§1) Antibodies were serially diluted in a 10-point curve starting at 1 μM in 3-fold steps. […] Units are in microM.

[2] = target: T2, biotinylated human TIGIT (human, UniProt Q495A1 22-141, biotinylated (EZ-Link NHS-PEG4-biotin kit)); test: competitive ELISA, biotin-hTIGIT to coated PVR
T2 construct: extracellular domain; also called human TIGIT extra cellular domain; TIGIT-ECD
T2 sequence (looked up): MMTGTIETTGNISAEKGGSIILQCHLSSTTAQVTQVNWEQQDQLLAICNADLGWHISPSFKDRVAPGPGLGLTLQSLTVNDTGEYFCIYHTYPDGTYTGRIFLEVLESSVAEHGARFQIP
Method: as §1

[3] = target: T3, human TIGIT fused to a beta galactosidase fragment, expressed on YTS cells (human, UniProt Q495A1 22-244); test: cell-based or functional assay
T3 sequence (looked up): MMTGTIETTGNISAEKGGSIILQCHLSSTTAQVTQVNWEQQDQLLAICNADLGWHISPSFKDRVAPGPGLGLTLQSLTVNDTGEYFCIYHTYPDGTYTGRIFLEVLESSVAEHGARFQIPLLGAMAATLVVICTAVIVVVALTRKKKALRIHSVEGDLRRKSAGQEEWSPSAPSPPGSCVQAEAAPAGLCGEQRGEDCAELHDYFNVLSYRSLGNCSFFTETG

[4] = target: T3, human TIGIT fused to a beta …; test: cell-based or functional assay; remark: listed apart in the source
[5] = target: T4, His-tagged recombinant Mouse TIGIT (mouse, UniProt P86176 29-148, limits assumed); test: ELISA
T4 construct: Coated on the plate at 0.5 µg/mL in the direct ELISA; not shown: His tag
T4 sequence (looked up): T1 sequence (looked up)
Method: (§2) Binding affinities for antigen binding to anti-TIGIT monoclonal antibodies were determined by ELISA. […] Antibodies to be tested were diluted to 1 μM in PBS buffer containing 1% BSA and diluted 3-fold in a 10-point curve. […] Detection of the secondary antibody was determined using streptavidin-HRP and TMB reagent. All assays were performed at room temperature. Curve-fitting software was used to determine the EC₅₀ for each antibody.

[6] = target: T5, mouse TIGIT-Fc (mouse, UniProt P86176 29-148); test: competitive ELISA vs coated PVR
T5 construct: extracellular domain; also called mouse TIGIT-ECD; not shown: Fc
T5 sequence (looked up): T1 sequence (looked up)
Method: as §1

[7] = target: T6, human TIGIT expressed in YTS cells, fused to a portion of beta galactosidase (human, UniProt Q495A1 22-244); test: cell-based or functional assay
T6 sequence (looked up): T3 sequence (looked up)

[8] = target: T3, human TIGIT fused to a beta …; test: cell-based or functional assay; remark: listed apart in the source
[9] = target: T3, human TIGIT fused to a beta …; test: cell-based or functional assay; remark: listed apart in the source
[10] = target: T7, His-tagged recombinant Human TIGIT (human, UniProt Q495A1 22-141); test: ELISA
T7 construct: Coated on the plate at 0.5 µg/mL in the direct ELISA; also called hTIGIT; not shown: His tag
T7 sequence (looked up): T2 sequence (looked up)
Method: as §2

[11] = target: T8, biotinylated human TIGIT extra cellular domain (human, UniProt Q495A1 22-141, biotinylated using the EZ-Link NHS-PEG4-biotin kit); test: competitive ELISA vs coated PVR
T8 construct: extracellular domain; also called human TIGIT-ECD
T8 sequence (looked up): T2 sequence (looked up)
Method: as §1

B1: Ab40 (Fab, V domains shown)
VH: EVQLLESGGGLVQPGGSLRLSCAASGFTFSSYGMNWVRQAPGKGLEWVAGIKYSSGNKYYADSVKGRFTISRDNSKNTLYLQMNSLRAEDTAVYYCARGPYDVWMDYWGQGTLVTVSS
VL: not shown
notes: clone from a phage library of monovalent human Fabs; also called clone Ab40
B1 was tested, and the IC50 [1] was greater than 1000 nM, the IC50 [2] was 3.8 nM and the “IC50 of inhibition of Grb2 recruitment (YTS_hTIGIT/hGrb2, 221_hPVR/ICAM, 11 pt)” value [3] was 2.3 nM. For the same binder, the “EC50 of induced dimerization (YTS_hTIGIT/hTIGIT, 11 pt)” value (shortened to “EC50 … (YTS_hTIGIT/hTIGIT, 11 pt)”) [4] was 9.5 nM.

B2: Ab117 (Fab, V domains shown)
VH: B1 VH with G33A, N35S, G50A, Y53S, S55A, G56S, N57T, K58I, G99E, D102S
VL: not shown
notes: ARE
B2 was tested, and the EC50 [5] was 10.7 nM, the IC50 [6] was 23.4 nM and the “YTS_hTIGI/hGrbs_EFC_Agonism (EC50)” value [7] was greater than 1000 nM. For the same binder, the “YTS_hTIGI/hGrbs_EFC_Antagonism (IC50)” value [7] was greater than 1000 nM and the “YTS_hTIGIT/hTIGIT_EFC (EC50)” value [7] was greater than 1000 nM.

B3: Ab143 (Fab, V domains shown)
VH: EVQLLESGGGLVQPGGSLRLSCAASGFTFSSYSMHWVRQAPGKGLEWVAAINSNAGSSSYADSVKGRFTISRDNSKNTLYLQMNSLRAEDTAVYYCARVPYGVWMDYWGQGTLVTVSS
VL: not shown
notes: clone from a phage library of monovalent human Fabs; also called clone Ab143
In the case of B3, the IC50 [1] is reported as 22 nM, the IC50 [2] is reported as 20.3 nM and the “EC50 … (YTS_hTIGIT/hTIGIT, 11 pt)” value [8] is reported as 4.7 nM. The “IC50 of inhibition of Grb2 recruitment (YTS_hTIGIT/hGrb2, 221_hPVR/ICAM, 11 pt)” value [9] was 60.2 nM.

B4: Ab143 (Fab, V domains shown)
VH: B3 VH
VL: not shown
notes: ARV
B4 was tested, and the EC50 [10] was 3.4 nM, the EC50 [5] was 5.7 nM and the IC50 [6] was 22 nM. For the same binder, the IC50 [11] was 20.3 nM, the “YTS_hTIGI/hGrbs_EFC_Agonism (EC50)” value [7] was greater than 1000 nM and the “YTS_hTIGI/hGrbs_EFC_Antagonism (IC50)” value [7] was 60.2 nM. The “YTS_hTIGIT/hTIGIT_EFC (EC50)” value [7] was 4.7 nM.

B5: Ab53 (Fab, V domains shown)
VH: B1 VH with G33S, N35H, G50S, Y53S, G56S, M105L
VL: not shown
notes: clone from a phage library of monovalent human Fabs; also called clone Ab53
With B5 the IC50 [1] was 35.3 nM, the IC50 [2] was 9 nM and the “IC50 of inhibition of Grb2 recruitment (YTS_hTIGIT/hGrb2, 221_hPVR/ICAM, 11 pt)” value [3] was 30.3 nM. The “EC50 … (YTS_hTIGIT/hTIGIT, 11 pt)” value [4] was 2.7 nM.
